The record followed here is publication PMC8378821.

Assay [1] concerns the target Mycobacterium tuberculosis Rv3705c soluble domain (mtTiME-SD) (M. tuberculosis H37Rv). Kind of assay: SEC-MALS. On the technique in general: SEC sorts molecules by how far they enter the pores of the column.
The target in assay [2] is Mycobacterium smegmatis MSMEG_6251 soluble domain (msTiME-SD) (M. smegmatis mc^2155). The assay is described as follows: crystal structure.

Usually stoichiometry N stands for a count of units in the complex or per binding partner. Turning to “Mycobacterium tuberculosis Rv3705c soluble domain (mtTiME-SD) (domain or fragment)”, the stoichiometry N in assay [1] worked out at 16. As to “Mycobacterium smegmatis MSMEG_6251 soluble domain (msTiME-SD) (domain or fragment)”, the stoichiometry N in assay [2] is 8.
